Results as given in US20040157248.

Key:
[1] = target: RecA wild-type (Escherichia coli) (UniProt P0A7G6); settings: ATPase rate without SSB relative to with SSB, 10 mM Mg
[2] = target: RecAΔC17 (Escherichia coli) (UniProt P0A7G6); settings: ATPase rate without SSB relative to with SSB, 10 mM Mg
[3] = target: RecAΔC17 (Escherichia coli) (UniProt P0A7G6); settings: salt titration midpoint by DNA-dependent ATPase, no SSB, 37 C; value is NaCl at half-maximal ATPase
[4] = target: RecA wild-type (Escherichia coli) (UniProt P0A7G6); settings: salt titration midpoint by DNA-dependent ATPase, no SSB, 37 C; value is NaCl at half-maximal ATPase
[5] = target: RecA E38K/ΔC17 (Escherichia coli) (UniProt P0A7G6); settings: apparent kcat of ATP hydrolysis with SSB-prebound poly(dT); no lag; higher with SSB than without

Substance | relative ATPase rate [1] [%] | relative ATPase rate [2] [%] | K half [3] [mM NaCl] | K half [4] [mM NaCl] | activity [5] [min⁻¹]
M13mp8 circular ssDNA | 30 | 84 |  |  | 
poly(dT) |  |  | 700 | 750 | > 20
